Reference: the supplement of paper PMC10201428
± gives the standard deviation of the averaged measurements.

B1: library; a variant is named by its letters at N, in order (parent)
chain: ACATTTGTTGATACAACCATAAAATGATAATTACACCCATAAATTGATAATTATCACACCCANNNNNNNNNNNNNNCTCTGATCATAGTCAGACCAACATTGCTACGACCCGTATTCGCACCGACAC

Tests used:
[1] = variants of: B1; test: relative integration efficiency (T-RL orientation) vs wild-type transposon end (log2 (normalized fold change)); transposon end mutated: right end (5 bp flank + 75 bp right end); higher = more efficient transposition; details: with VchCAST RNA-guided transposition machinery (E. coli BL21(DE3) host, lacZ target)
Method: (§1)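 Pooled, barcoded VchCAST (Tn6677) mini-transposon donor libraries; each variable transposon-end sequence sits in a fixed pDonor mini-transposon context (10-bp barcode and cargo not included). Left- or right-end libraries were co-transformed with pEffector (TniQ-Cascade, TnsABC, lacZ crRNA, T7, 0.1 mM IPTG) into E. coli BL21(DE3) and grown 18 h at 37 C. T-LR and T-RL junction amplicons were sequenced; output/input barcode fold change was normalised to the mean of four wild-type barcodes and log2-transformed. Two biological replicates; zero-count/undetected variants carry floor values (-10 / -15), censored here. Barcode uncoupling by PCR recombination adds noise.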

[2] = variants of: B1; test: relative integration efficiency (T-LR orientation) vs wild-type transposon end (log2 (normalized fold change)); transposon end mutated: right end (5 bp flank + 75 bp right end); higher = more efficient transposition; details: with VchCAST RNA-guided transposition machinery (E. coli BL21(DE3) host, lacZ target)
Method: as §1

Variant	relative integration efficiency (log2) [1]	relative integration efficiency (log2) [2]
TAAATTGATATTGC A21C	-0.283 ± 0.04	-0.846 ± 0.23
TAAATTGATATTGC A21G	-0.564 ± 0.14	-1.31 ± 0.14
TAAATTGATATTGC A22T	-0.215 ± 0.042	-0.148 ± 0.0031
TAAATTGATATTGC A22C	-0.874 ± 0.074	-1.72 ± 0.82
TAAATTGATATTGC A22G	-0.771 ± 0.018	-1.09 ± 0.47
TAAATTGATATTGC C38A	-0.117 ± 0.04	-0.451 ± 0.24
TAAATTGATATTGC C38T	0.335 ± 0.044	-0.111 ± 0.49
TAAATTGATATTGC C38G	0.03 ± 0.16	-0.489 ± 0.06
TAAATTGATATTGC A11G	-0.0551 ± 0.029	-0.5 ± 0.17
TAAATTGATATTGC A11T	0.176 ± 0.055	-0.678 ± 0.051
TAAATTGATATTGC A11C	0.342 ± 0.021	-0.681 ± 0.56
TAAATTGATATTGC A24T	-0.125 ± 0.1	-0.0829 ± 0.28
TAAATTGATATTGC A24C	0.238 ± 0.12	0.1 ± 0.21
TAAATTGATATTGC A24G	0.266 ± 0.047	0.156 ± 0.052
AAAATTGATATTGC A62T	-0.47 ± 0.19	1.67 ± 0.025
TAAATTGATATTGC C14G	-0.477 ± 0.036	-1.2 ± 0.21
TAAATTGATATTGC C14A	-0.119 ± 0.027	-0.254 ± 0.16
TAAATTGATATTGC C14T	-0.00853 ± 0.13	0.0199 ± 0.32
TAAATTGAGCTTGC	-0.264 ± 0.034	1.51 ± 0.32

Variant	relative integration efficiency (log2) [1]	relative integration efficiency (log2) [2]
TAAATTGAAATTGC	-0.187 ± 0.13	1.06 ± 0.27
TAAATTGATATTCG	-0.0179 ± 0.025	-0.258 ± 0.12
TAAATTGATATTCC	-0.154 ± 0.11	-0.146 ± 0.21
TAAATGGATATTGC	-0.161 ± 0.039	1.54 ± 0.17
TAAATTGATATTGC C36T	-0.172 ± 0.077	-0.179 ± 0.053
TAAATTGATATTGC C36A	0.40973 ± 0.00019	0.478 ± 0.0049
TAAATTGATATTGC C36G	-0.469 ± 0.0075	-0.695 ± 0.23
TAAATTGATACTGC	-0.0852 ± 0.044	0.177 ± 0.018
TAAAATGATATTGC	0.0615 ± 0.025	0.274 ± 0.058
TAAATTGATAGGTA	-0.219 ± 0.01	1.09 ± 0.099
TAAATTGATATTGC C18T	0.131 ± 0.1	-0.605 ± 0.2
TAAATTGATATTGC C18G	-0.199 ± 0.036	-0.152 ± 0.14
TAAATTGATATTGC C18A	-0.147 ± 0.1	-0.272 ± 0.024
TAAATTGATATTGC A62G	-0.0391 ± 0.14	0.97 ± 0.12
TAAATTGATATTGC A62T	-0.435 ± 0.12	1.36 ± 0.086
TAAATTGATATTGC A62C	-0.726 ± 0.016	2.18 ± 0.2
TAAATTGATATTGC C37T	-0.229 ± 0.057	-0.304 ± 0.57
TAAATTGATATTGC C37G	-0.123 ± 0.11	-0.169 ± 0.072
TAAATTGATATTGC C37A	-0.531 ± 0.059	-1.21 ± 0.23

Variant	relative integration efficiency (log2) [1]	relative integration efficiency (log2) [2]
TAAATTGATATTGC A50T	-0.455 ± 0.22	-0.0702 ± 0.025
TAAATTGATATTGC A50C	-0.321 ± 0.012	-0.213 ± 0.17
TAAATTGATATTGC A50G	-0.0471 ± 0.15	0.0313 ± 0.15
CAAATTGATATTGC	-0.643 ± 0.087	1.861 ± 0.015
TAAATACATATTGC	-0.637 ± 0.26	2.3 ± 0.041
TAAATTGATATGTC	-0.17 ± 0.058	0.485 ± 0.25
TAAATTGATATTAC	-0.14 ± 0.1	0.0276 ± 0.11
TAAAGGTCTATTGC	-0.635 ± 0.042	2.17 ± 0.33
GAAATTGATATTGC	-0.446 ± 0.11	2.2 ± 0.046
TAAATTGATATTGC A39C	-1.23 ± 0.021	-1.05 ± 0.2
TAAATTGATATTGC A39G	-0.0861 ± 0.07	-0.449 ± 0.17
TAAATTGATATTGC A39T	-0.236 ± 0.061	-0.533 ± 0.43
TAAATTGATATTGC C2T	-0.0194 ± 0.017	0.0698 ± 0.22
TAAATTGATATTGC C2G	0.0801 ± 0.019	0.363 ± 0.28
TAAATTGATATTGC C2A	0.0243 ± 0.04	0.336 ± 0.22
TAAATTGATATTGC A19G	-0.155 ± 0.081	-0.378 ± 0.051
TAAATTGATATTGC A19C	-1.18 ± 0.12	-1.16 ± 0.11
TAAATTGATATTGC A19T	-0.574 ± 0.03	-0.267 ± 0.084
TAAATTGATAATTA	0.000518 ± 0.059	0.0298 ± 0.42
